Here are results for one substance from patent US20240174767A1.

The experiment addresses β2AR wild type (wt) receptor (human) (UniProt P07550). As to the kind of experiment: cell-based or functional assay.

As for MbNb80^cHopQ (designed binder), the apparent potency shift: IC50 of epinephrine for β2AR-wt alone divided by the IC50^high of epinephrine for β2AR-wt in the presence of MbNb80^cHopQ ([3H]-DHA competition) was 2000 fold and the apparent potency shift: IC50 of isoprotenerol for β2AR-wt divided by the IC50^high of isoprotenerol for β2AR-wt in the presence of MbNb80^cHopQ ([3H]-DHA competition) was determined as 2000 fold.
